Experimental data as given in the supplement of paper PMC9732359.
± gives the uncertainty stated by the source.

Test: protein stability index of a GFP-peptide fusion (yeast GPS) (PSI 1-4); higher = more stable; sorted into four equal gates, so the index is relative within each strain
Procedure, shortened: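 Sequencing reads from sorted gates were used to score each peptide. The library consisted of tiled 17-residue yeast protein peptides fused downstream of GFP on a Cherry-expressing plasmid, pooled and carried in yeast. Mid-log cultures in leucine-free medium were split into four equal gates by GFP/Cherry ratio, and each gate's plasmids were PCR-amplified and Illumina-sequenced. The protein stability index adds up, over all gates, the read frequency multiplied by the gate number.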

| Sequence | protein stability index (doa10∆) | protein stability index (pdr5∆) | protein stability index (san1∆) | protein stability index (ubr1∆) |
| --- | --- | --- | --- | --- |
| DSNTTEILTSVDVLGTH [SIR4] | 2.92 ± 0.063 | 2.96 ± 0.058 | 2.93 ± 0.06 | 3.04 ± 0.036 |
| VSKVQKRKVLELKKKRK [SRP72] | 2.78 ± 0.1 | 2.57 ± 0.13 | 2.24 ± 0.1 | 2.48 ± 0.054 |
| KKRNMPLQSIPEIGNRK [SWI1] | 2.62 ± 0.041 | 2.67 ± 0.037 | 2.81 ± 0.038 | 2.63 ± 0.033 |
| DDLQKFNGIENQSAYEW [ISW2] | 3.2 ± 0.21 | 3.23 ± 0.21 | 3.29 ± 0.1 | 3.32 ± 0.14 |
| ARGTIEIVSDVKVVDAG [RPP0] | 1.61 ± 0.1 | 2.21 ± 0.07 | 1.96 ± 0.15 | 1.77 ± 0.095 |
| IIYPRSQTTLVQFGLNE [ARP9] | 3.04 ± 0.19 | 1.33 ± 0.082 | 2.03 ± 0.12 | 1.26 ± 0.17 |
| PINLQNGEEDEVALFSQ [YLR335W/NUP2] | 3.11 ± 0.14 | 3.39 ± 0.17 | 3.22 ± 0.054 | 3.17 ± 0.18 |
| QNHNSKSTDNSAIRQVF [IRR1] | 2.61 ± 0.039 | 2.8 ± 0.037 | 2.85 ± 0.042 | 2.739 ± 0.027 |
| KQRAGTASFIPLDTIET [SMC1] | 2.62 ± 0.06 | 2.82 ± 0.064 | 2.65 ± 0.056 | 2.66 ± 0.051 |
| NNSLSYHSGRLLIQGPK [ITC1] | 2.45 ± 0.054 | 2.3 ± 0.048 | 2.47 ± 0.062 | 2.93 ± 0.051 |
| YQELAYRATSLDPSLRA [YML031W/NDC1] | 2.8 ± 0.049 | 2.89 ± 0.041 | 2.83 ± 0.036 | 2.61 ± 0.031 |
| KQRKNPRRIAWTVLFRK [RPL24A] | 3.03 ± 0.14 | 2.27 ± 0.1 | 1.41 ± 0.25 | 2.27 ± 0.048 |
| AFGFVDRTLPHFSKDDY [RPO21] | 2.81 ± 0.068 | 3.17 ± 0.05 | 2.85 ± 0.052 | 3.16 ± 0.035 |
| QRTATLCLEKLMCLSSK [YCS4] | 1.6 ± 0.049 | 2.29 ± 0.075 | 2.49 ± 0.11 | 1.78 ± 0.057 |
| HKQISAEDLTIAAKTHI [SIN4] | 3.03 ± 0.12 | 3.1 ± 0.079 | 3.35 ± 0.084 | 2.76 ± 0.088 |
| QIEKKEIKKMIITNINA [YCG1] | 2.64 ± 0.11 | 2.75 ± 0.11 | 2.7 ± 0.13 | 2.47 ± 0.15 |
| KPLADLRPLFTRYELYI [YLR335W/NUP2] | 2.4 ± 0.048 | 2.04 ± 0.04 | 2.09 ± 0.073 | 2.02 ± 0.029 |
| IVMEDHGVLQGTSQNYG [MED1] | 3.11 ± 0.059 | 3.02 ± 0.067 | 3.13 ± 0.062 | 3.07 ± 0.049 |
| QFISSRQFEVKQLQLAM [POP1] | 2.24 ± 0.051 | 2.45 ± 0.051 | 2.1 ± 0.067 | 1.74 ± 0.037 |
| KQDEKKSSELELQKLVH [SMC2] | 3.23 ± 0.13 | 3.5 ± 0.097 | 3.4 ± 0.071 | 3.35 ± 0.051 |

| Sequence | protein stability index (doa10∆) | protein stability index (pdr5∆) | protein stability index (san1∆) | protein stability index (ubr1∆) |
| --- | --- | --- | --- | --- |
| VSETPKRIKGLEFSALS [RPO31] | 3.01 ± 0.12 | 2.94 ± 0.12 | 3.01 ± 0.086 | 2.97 ± 0.1 |
| LAAPQLVQMYIGEGAKL [RPT5] |  |  | 2.48 ± 0.26 |  |
| LEGITTTIDSLNAELES [SMC3] | 1.57 ± 0.088 | 1.77 ± 0.15 | 2.27 ± 0.17 | 3.14 ± 0.1 |
| KSAISNNFRESDIIILK [SIR4] | 3 ± 0.08 | 2.56 ± 0.065 | 2.96 ± 0.06 | 3.09 ± 0.059 |
| DFHFSTDRITRLFIKPG [BRN1] | 2.33 ± 0.058 | 2.6 ± 0.046 | 2.16 ± 0.089 | 2.67 ± 0.048 |
| RVWAEYATKRQEAIQQN [PRP8] | 2.37 ± 0.15 | 2.56 ± 0.1 | 2.61 ± 0.1 | 2.2 ± 0.096 |
| RVKDPQWLIMLGICTHL [RIP1] | 2.62 ± 0.064 | 2.48 ± 0.055 | 2.36 ± 0.075 | 2.91 ± 0.045 |
| SNILLNSLTKYPDLKAF [MED1] | 1.98 ± 0.14 | 2.41 ± 0.085 | 2.24 ± 0.2 | 1.71 ± 0.094 |
| IKGPEFKFSGTVSSDVF [YLR335W/NUP2] |  | 3.17 ± 0.18 |  |  |
| KTATVKINKKLNKAGKP [RPL38] | 2.73 ± 0.17 | 3.21 ± 0.11 | 3.22 ± 0.098 | 3.19 ± 0.1 |
| TETLTSKKIVPSPKKVA [SIR4] | 2.77 ± 0.089 | 2.87 ± 0.083 | 2.63 ± 0.066 | 2.55 ± 0.12 |
| SDPNNQSLNEMVKLIVM [YJL039C/NUP192] | 2.66 ± 0.066 | 2.74 ± 0.052 | 2.97 ± 0.078 | 2.35 ± 0.056 |
| PSENLLNIRIQTYGETT [RPC19] | 1.85 ± 0.27 | 1.18 ± 0.13 |  | 1.33 ± 0.26 |
| TIEDIAVAITRASKLKI [RPO31] | 1.63 ± 0.081 | 1.76 ± 0.063 | 2.1 ± 0.12 | 1.97 ± 0.06 |
| EEEKSVDASPNDVTRRT [CSL4] | 3.25 ± 0.08 | 3.33 ± 0.085 | 3.27 ± 0.05 | 3.44 ± 0.065 |
| QLAGKSGEDTNVGLPIL [YOR098C/NUP1] | 2.86 ± 0.15 | 3.32 ± 0.084 | 3.36 ± 0.062 | 3.25 ± 0.052 |
| PQGSTTNGGLFGSGTQN [YGR119C/NUP57] | 3.12 ± 0.073 | 3.27 ± 0.058 | 3.3 ± 0.042 | 3.015 ± 0.029 |
| NRTLYELADLPKLKRIG [GRR1] | 2.88 ± 0.049 | 2.87 ± 0.037 | 2.8 ± 0.042 | 3.02 ± 0.042 |
| GTGNNNKLNFIVDDKQE [DIB1] | 1.42 ± 0.073 | 1.36 ± 0.047 | 1.57 ± 0.17 | 1.61 ± 0.058 |
